The target in experiment [1] is somatostatin receptor SSTR5 (Human, UniProt P35346 1-364). Put plainly: cell-based or functional assay.
Experiment [2] has as its target T1, somatostatin receptor SSTR4 (Human, UniProt P31391 1-388). Put plainly: cell-based or functional assay.
Experiment [3] has as its target T2, somatostatin receptor SSTR1 (Human, UniProt P30872 1-391). Put plainly: cell-based or functional assay.
The target of experiment [4] is T3, somatostatin receptor SSTR3 (Human, UniProt P32745 1-418). Put plainly: cell-based or functional assay.
Experiment [5] has as its target T4, somatostatin receptor SSTR2 (Human, UniProt P30874 1-369). Put plainly: cell-based or functional assay.
In experiment [6] the target is T4, somatostatin receptor SSTR2. Briefly: cell-based or functional assay. This is another data set of the same source.
In experiment [7] the target is T2, somatostatin receptor SSTR1. Briefly: cell-based or functional assay. This is another data set of the same source.
In experiment [8] the target is T3, somatostatin receptor SSTR3. Put plainly: cell-based or functional assay. This is another data set of the same source.
The target of experiment [9] is T1, somatostatin receptor SSTR4. Briefly: cell-based or functional assay. This is another data set of the same source.
In experiment [10] the target is T4, somatostatin receptor SSTR2. Put plainly: radioligand competition. For orientation: Loss of bound radioactivity is the signal in a displacement assay; it reports binding, not function.
The target of experiment [11] is T1, somatostatin receptor SSTR4. Put plainly: cell-based or functional assay. This is another data set of the same source.

Like-named read-outs stand apart in the source and are kept apart here. Bridges are numbered along the chain shown (N, C = ends). Where no end group is shown, it is not given here. Side-chain parts run from the residue outwards. disialo(aminoethylamide) = disialo sugar chain with sialic acid carboxy groups modified by aminoethylamino groups; diGlcNAc = diGlcNAc sugar chain; disialo = disialo sugar chain; GlcNAc = N-acetylglucosamine; asialo = not defined here

In general, IC50 refers to the concentration needed to halve the response being measured. A lower IC50 goes with greater potency in that assay. A word on the Ki: it is the equilibrium dissociation constant of an inhibitor or competing ligand from its target.

T1 sequence (P31391 whole entry): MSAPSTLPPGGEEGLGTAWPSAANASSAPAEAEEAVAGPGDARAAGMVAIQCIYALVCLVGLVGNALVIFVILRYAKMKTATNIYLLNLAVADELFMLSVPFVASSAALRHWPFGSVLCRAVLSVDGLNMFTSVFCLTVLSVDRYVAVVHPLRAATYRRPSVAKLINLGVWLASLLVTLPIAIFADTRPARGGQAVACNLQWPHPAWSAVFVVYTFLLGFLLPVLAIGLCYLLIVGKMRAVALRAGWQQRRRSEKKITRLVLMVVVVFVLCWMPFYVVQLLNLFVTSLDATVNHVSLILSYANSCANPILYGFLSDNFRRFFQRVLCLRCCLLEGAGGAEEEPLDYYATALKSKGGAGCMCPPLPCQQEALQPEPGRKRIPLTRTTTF
T4 sequence (P30874 whole entry): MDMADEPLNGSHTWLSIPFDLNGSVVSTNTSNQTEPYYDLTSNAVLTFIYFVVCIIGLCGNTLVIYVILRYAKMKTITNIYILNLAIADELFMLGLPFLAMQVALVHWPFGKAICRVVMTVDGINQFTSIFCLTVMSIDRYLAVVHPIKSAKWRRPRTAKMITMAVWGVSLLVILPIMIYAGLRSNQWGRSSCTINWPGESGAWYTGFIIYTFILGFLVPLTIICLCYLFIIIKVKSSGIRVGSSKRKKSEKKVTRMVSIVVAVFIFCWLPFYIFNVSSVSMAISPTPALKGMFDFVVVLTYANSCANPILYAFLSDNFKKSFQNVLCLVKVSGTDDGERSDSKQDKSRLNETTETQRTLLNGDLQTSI
T3 sequence (P32745 whole entry): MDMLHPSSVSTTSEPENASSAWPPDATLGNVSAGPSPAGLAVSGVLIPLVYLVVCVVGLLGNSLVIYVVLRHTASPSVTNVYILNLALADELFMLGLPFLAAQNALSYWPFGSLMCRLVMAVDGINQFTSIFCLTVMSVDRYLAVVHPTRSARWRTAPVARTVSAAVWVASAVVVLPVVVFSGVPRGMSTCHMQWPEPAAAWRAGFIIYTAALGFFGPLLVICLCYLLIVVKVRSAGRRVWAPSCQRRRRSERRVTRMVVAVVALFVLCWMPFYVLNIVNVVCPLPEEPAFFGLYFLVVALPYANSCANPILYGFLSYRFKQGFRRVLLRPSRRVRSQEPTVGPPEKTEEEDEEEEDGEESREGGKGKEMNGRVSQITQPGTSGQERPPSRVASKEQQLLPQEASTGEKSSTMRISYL
somatostatin receptor SSTR5, sequence (P35346 whole entry): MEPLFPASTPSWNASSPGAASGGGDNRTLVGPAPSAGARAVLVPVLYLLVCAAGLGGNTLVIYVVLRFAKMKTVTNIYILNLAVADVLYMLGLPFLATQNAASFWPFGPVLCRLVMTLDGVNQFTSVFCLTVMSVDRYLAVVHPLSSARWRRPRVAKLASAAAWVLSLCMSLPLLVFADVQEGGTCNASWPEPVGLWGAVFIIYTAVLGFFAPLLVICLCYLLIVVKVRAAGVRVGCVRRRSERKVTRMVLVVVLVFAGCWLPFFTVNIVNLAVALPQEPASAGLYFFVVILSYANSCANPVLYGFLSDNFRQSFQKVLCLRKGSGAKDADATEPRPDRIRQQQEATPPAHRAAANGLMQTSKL
T2 sequence (P30872 whole entry): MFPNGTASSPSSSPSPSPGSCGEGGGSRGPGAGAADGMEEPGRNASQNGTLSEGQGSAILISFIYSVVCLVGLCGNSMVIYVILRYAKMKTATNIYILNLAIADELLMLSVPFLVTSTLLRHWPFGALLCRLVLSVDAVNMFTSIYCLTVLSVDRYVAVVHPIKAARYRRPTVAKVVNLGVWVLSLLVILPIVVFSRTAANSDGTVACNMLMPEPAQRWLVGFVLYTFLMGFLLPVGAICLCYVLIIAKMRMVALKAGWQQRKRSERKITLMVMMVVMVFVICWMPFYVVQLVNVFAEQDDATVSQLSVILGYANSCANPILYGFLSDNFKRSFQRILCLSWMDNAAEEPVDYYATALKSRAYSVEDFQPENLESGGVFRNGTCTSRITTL

On to C(trisialo sugar chain)ANSNPAMAPRERKAGCKNFFWKTFTSC (disulfide 17-28) [S1C(trisialo)-SRIF28], for which the “IC50, cAMP production suppressing action” value in experiment [1] was found to be 90 pM.

B1: S1-3C(asialo)-SRIF28 (peptide)
peptide: CCCANSNPAMAPRERKAGCKNFFWKTFTSC
modifications: Ser1 replaced by three consecutive Cys each with an asialo sugar chain; disulfide Cys17-Cys28
On to B1, for which, in experiment [2], the “IC50, cAMP production suppressing action” value is 100 pM.
Same read-out and setting: as for C(diGlcNAc)ANSNPAMAPRERKAGCKNFFWKTFTSC (disulfide 17-28) [S1C(diGlcNAc)-SRIF28], the figure is 50 pM.
As to C([Asn-disialo])ANSNPAMAPRERKAGCKNFFWKTFTSC (disulfide 17-28) [S1C(Asn(disialo))-SRIF28], the “IC50, cAMP production suppressing action” value in experiment [3] was determined as 2000 pM.
Turning to C(disialo sugar chain)KAGCKNFFWKTFTSC (disulfide 5-16) [C(disialo)-K-SRIF14], the “IC50, cAMP production suppressing action” value in experiment [4] turned out to be 100 pM.
As to C(GlcNAc)ANSNPAMAPRERKAGCKNFFWKTFTSC (disulfide 17-28) [S1C(GlcNAc)-SRIF28], the “IC50, cAMP production suppressing action” value in experiment [5] worked out at 40 pM.
For C(disialo(aminoethylamide))ANSNPAMAPRERKAGCKNFFWKTFTSC (disulfide 17-28) [S1C(disialo(aminoethylamide))-SRIF28], the results for the “IC50, cAMP production suppressing action” value in experiment [6], in [7] and in experiment [8] were 100 pM, 1000 pM and 300 pM, respectively.

B2: 3C(disialo)-R-K-SRIF14 (peptide)
peptide: CCCRKAGCKNFFWKTFTSC
modifications: disialo sugar chain on each of the three N-terminal Cys of the added Cys-Cys-Cys-Arg-Lys-; disulfide Cys17-Cys28
Take B2: the IC50, cAMP production suppressing action in experiment [9] was found to be 1600 pM.
In experiment [10], C(asialo)ANSNPAMAPRERKAGCKNFFWKTFTSC (disulfide 17-28; reading uncertain) [S1C(asialo)-SRIF28] returned an IC50 of 200 pM.
For the molecule CAGCKNFFWKTFTSC (disialo sugar chain on the Cys added before Ala15; disulfide Cys17-Cys28) [C(disialo)-SRIF14], in experiment [2], the “IC50, cAMP production suppressing action” value was found to be 100 pM.
As to C(disialo sugar chain)RKAGCKNFFWKTFTSC (disulfide 6-17) [C(disialo)-R-K-SRIF14], in experiment [11], the “IC50, cAMP production suppressing action” value amounted to 50 pM.
Turning to C(disialo)ANSNPAMAPRERKAGCKNFFWKTFTSC (disulfide 17-28) [S1C(disialo)-SRIF28], the Ki in [10] was 269 pM. Also, the “IC50, cAMP production suppressing action” value was determined as 75 pM in experiment [6] and 65 pM in experiment [11].
On to C(disialo)ANSC(disialo)PAMAPRERKAGCKNFFWKTFTSC (disulfide 17-28) [S1C(disialo)•N5C(disialo)-SRIF28], for which the “IC50, cAMP production suppressing action” value in [1] turned out to be 90 pM.
C(disialo)ANSNPAMAPRERKAGCKC(GlcNAc)FFWKTFTSC (disulfide 17-28) [S1C(disialo)•N19C(GlcNAc)-SRIF28]: the “IC50, cAMP production suppressing action” value in experiment [5] is 80 pM.

Source of the values: patent US20140336116A1 (GLYTECH, published 2014).
